Reference: patent US20160305952A1 (ROCHE SEQUENCING SOLUTIONS, published 2016)
Where no end group is shown, it is not given here.

target: T1, Taq polymerase (UniProt P19821 1-832); assay: peptide array, extension library, 3Z linker
T1 sequence (P19821 whole entry): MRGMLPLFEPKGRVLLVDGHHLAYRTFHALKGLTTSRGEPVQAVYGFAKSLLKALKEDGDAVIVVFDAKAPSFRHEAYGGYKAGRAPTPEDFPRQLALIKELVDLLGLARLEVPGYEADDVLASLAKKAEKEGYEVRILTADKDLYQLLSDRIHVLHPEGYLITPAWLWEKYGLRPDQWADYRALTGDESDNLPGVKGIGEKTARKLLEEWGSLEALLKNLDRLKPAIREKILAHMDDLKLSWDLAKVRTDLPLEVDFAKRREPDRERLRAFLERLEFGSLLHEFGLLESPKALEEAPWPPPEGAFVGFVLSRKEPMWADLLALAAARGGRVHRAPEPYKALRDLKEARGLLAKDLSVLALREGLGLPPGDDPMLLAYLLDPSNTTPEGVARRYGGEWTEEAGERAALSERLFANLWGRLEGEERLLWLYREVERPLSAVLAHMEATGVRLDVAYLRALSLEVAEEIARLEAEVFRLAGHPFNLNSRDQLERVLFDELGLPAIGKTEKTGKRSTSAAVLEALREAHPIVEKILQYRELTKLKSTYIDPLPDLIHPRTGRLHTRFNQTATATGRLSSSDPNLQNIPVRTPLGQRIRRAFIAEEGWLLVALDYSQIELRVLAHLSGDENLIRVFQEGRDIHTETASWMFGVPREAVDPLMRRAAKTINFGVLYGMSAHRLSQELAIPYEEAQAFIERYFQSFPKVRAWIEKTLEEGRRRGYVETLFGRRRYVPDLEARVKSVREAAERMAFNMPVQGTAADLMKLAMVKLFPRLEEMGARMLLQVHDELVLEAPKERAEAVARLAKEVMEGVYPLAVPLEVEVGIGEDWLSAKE

Binder | binding result
QQHYFEFEK (also: array-bound via 3Z linker) | binds
YSWTKVKDY (also: array-bound via 3Z linker) | binds
YEWTKVKNY (also: array-bound via 3Z linker) | binds
KKWDWDWKW (also: array-bound via 3Z linker) | binds
RSWDWDWKK (also: array-bound via 3Z linker) | binds
GEHYFEFAP (also: array-bound via 3Z linker) | binds
YKWKEDWKW (also: array-bound via 3Z linker) | binds
FGWKAEKFN (also: array-bound via 3Z linker) | binds
YEHEFSFGT (also: array-bound via 3Z linker) | binds
GQHEFSFGT (also: array-bound via 3Z linker) | binds
GEHYFEFQQ (also: array-bound via 3Z linker) | binds

target: T1, Taq polymerase; assay: peptide array, 5-mer library, 5Z linker

Binder | binding result
WKEDW (also: array-bound via 5Z linker) | binds
HYFEF (also: array-bound via 5Z linker) | binds
WTKVK (also: array-bound via 5Z linker) | binds
WKAEK (also: array-bound via 5Z linker) | binds
HEFSF (also: array-bound via 5Z linker) | binds
WDWDW (also: array-bound via 5Z linker) | binds

target: T2, streptavidin (UniProt P22629 37-163, limits assumed); assay: SPR, Biacore X100, streptavidin on CM5 chip, peptide in solution
T2 construct: amine-coupled to a CM5 chip for SPR; also called SA
Source text: A selection of streptavidin peptide binders listed in Table 15 were synthesized using standard column-based synthesis techniques by UW Biotechnology center (Madison, Wis.) or by Peptide2.0 (Chantilly, Va.) at 98-99% purity. Strep-tag II peptide NH2-[…]-COOH was purchased from IBA GmbH (Goettingen, Germany). Synthesized peptides were then characterized by Surface Plasmon Resonance (SPR) to identify binding characteristics including the association rate constant (kₛ), dissociation rate constant (kd), and equilibrium dissociation […] (kd/kₐ=KD). In one aspect, SPR experiments were performed by using Biacore X100 instrument (GE Healthcare). Preliminarily, 60 μl of 100 μg/ml streptavidin in 10 mM Na-acetate, pH5.0 was immobilized to flow cell 2 (Fc2) of a sensor chip CM5 (GE Healthcare) using Amine Coupling Kit (GE Healthcare) at 20° C. for 6 min. Peptide stock solutions were prepared at 5 or 10 mM concentration in water and diluted in HBS-EP+ (GE Healthcare) buffer before SPR experiments. Peptide binding was performed in a multiple kinetics mode using HBS-EP+ as a running buffer and 0.2 M NaCl, 10 mM NaOH or 10 mM HCl-glycine, […] as regeneration buffer. Binding kinetics parameters were calculated with Biacore X100 software.

T2 sequence (P22629 37-163 limits assumed): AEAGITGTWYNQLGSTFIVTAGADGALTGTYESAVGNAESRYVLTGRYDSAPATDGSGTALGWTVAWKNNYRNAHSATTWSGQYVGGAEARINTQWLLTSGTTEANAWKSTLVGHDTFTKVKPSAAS

Binder | Kd [µM] | koff [s⁻¹] | kon [M⁻¹ s⁻¹]
H-SAWSHPQFEK-OH (free peptide, C-terminal carboxylic acid; bought from IBA; also called Strep-tag II peptide; Strep-Tag II) [NH2-SAWSHPQFEK-COOH] | 49.8 |  | 
H-NSFDDWLAKGG-OH (free peptide, C-terminal carboxylic acid) [NH2-NSFDDWLAKGG-COOH] | 11.3 |  | 
H-AFPDYLAEYHGG-NH2 (free peptide) [NH2-AFPDYLAEYHGG-amide] | 0.043 | 0.00128 | 30100
H-AFDYLAQYHGG-NH2 (free peptide) [NH2-AFDYLAQYHGG-amide] | 1.52 | 0.0354 | 23300
H-WTHPQFEQPKA-NH2 (free peptide) [NH2-WTHPQFEQPKA-amide] | 7.9 |  | 
H-ADYLAEYHGG-OH (free peptide, C-terminal carboxylic acid) [NH2-ADYLAEYHGG-COOH] | 96 |  | 
H-WTHPQFEQK-OH (free peptide, C-terminal carboxylic acid) [NH2-WTHPQFEQK-COOH] | 15.5 |  | 

target: T3, Tumor Necrosis Factor Alpha (human, UniProt P01375 77-233); assay: peptide array, 5-mer library, 5Z linker
T3 construct: also called TNFα; TNF-α
T3 sequence (P01375 77-233 limits assumed): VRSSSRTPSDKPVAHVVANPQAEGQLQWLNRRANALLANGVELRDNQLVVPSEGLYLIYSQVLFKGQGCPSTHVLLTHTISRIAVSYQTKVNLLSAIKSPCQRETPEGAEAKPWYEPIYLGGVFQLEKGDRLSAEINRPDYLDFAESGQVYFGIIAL

Binder | binding result
AIAIF (also: array-bound via 5Z linker) | binds
ALYLF (also: array-bound via 5Z linker) | binds
VTVYV (also: array-bound via 5Z linker) | binds
TAVFV (also: array-bound via 5Z linker) | binds

target: T4, Prostate Specific Antigen (human, UniProt P07288 25-261); assay: peptide array, extension library, 3Z linker
T4 construct: also called PSA
T4 sequence (P07288 25-261 limits assumed): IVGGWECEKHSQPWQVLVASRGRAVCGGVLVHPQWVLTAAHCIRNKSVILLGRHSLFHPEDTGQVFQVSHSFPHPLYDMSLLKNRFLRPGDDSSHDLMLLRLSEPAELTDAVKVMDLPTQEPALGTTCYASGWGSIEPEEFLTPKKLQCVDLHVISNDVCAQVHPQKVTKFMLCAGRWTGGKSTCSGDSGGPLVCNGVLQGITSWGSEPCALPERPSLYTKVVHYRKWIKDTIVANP

Binder | binding result
GDWTVYAGN (also: array-bound via 3Z linker) | binds
GQWEVHLGK (also: array-bound via 3Z linker) | binds
NGFEVYLPG (also: array-bound via 3Z linker) | binds
TDFEVYLPK (also: array-bound via 3Z linker) | binds
TGWEVHLGK (also: array-bound via 3Z linker) | binds
SEWTVYAGN (also: array-bound via 3Z linker) | binds
SCRSILYND (also: array-bound via 3Z linker) | binds
SCRSILYGQ (also: array-bound via 3Z linker) | binds
SCRSILYGP (also: array-bound via 3Z linker) | binds
GQFEVYLPG (also: array-bound via 3Z linker) | binds

target: T3, Tumor Necrosis Factor Alpha; assay: peptide array, extension library, 3Z linker

Binder | binding result
DGALYLFGN (also: array-bound via 3Z linker) | binds
GGTAVFVNT (also: array-bound via 3Z linker) | binds
TSVTVYVNN (also: array-bound via 3Z linker) | binds
QAAIAIFGG (also: array-bound via 3Z linker) | binds

target: T4, Prostate Specific Antigen; assay: peptide array, 5-mer library, 5Z linker

Binder | binding result
RSILY (also: array-bound via 5Z linker) | binds
FEVYL (also: array-bound via 5Z linker) | binds
WTVYA (also: array-bound via 5Z linker) | binds
WEVHL (also: array-bound via 5Z linker) | binds

target: T4, Prostate Specific Antigen; assay: peptide array, double substitution/deletion library

Binder | binding result
ALDWQVYAGFG | binds
GTGWEVHLGKG | binds
GTDFEVYFPKI | binds
